The results in this text go back to patent US20030134799A1.

This test concerns the target NMDA receptor of well-washed rat forebrain membranes (rat) (UniProt Q9R1M7). Briefly: cell-based or functional assay.

Chain of NMDA receptor of well-washed rat forebrain membranes (rat) (Q9R1M7 24-1135): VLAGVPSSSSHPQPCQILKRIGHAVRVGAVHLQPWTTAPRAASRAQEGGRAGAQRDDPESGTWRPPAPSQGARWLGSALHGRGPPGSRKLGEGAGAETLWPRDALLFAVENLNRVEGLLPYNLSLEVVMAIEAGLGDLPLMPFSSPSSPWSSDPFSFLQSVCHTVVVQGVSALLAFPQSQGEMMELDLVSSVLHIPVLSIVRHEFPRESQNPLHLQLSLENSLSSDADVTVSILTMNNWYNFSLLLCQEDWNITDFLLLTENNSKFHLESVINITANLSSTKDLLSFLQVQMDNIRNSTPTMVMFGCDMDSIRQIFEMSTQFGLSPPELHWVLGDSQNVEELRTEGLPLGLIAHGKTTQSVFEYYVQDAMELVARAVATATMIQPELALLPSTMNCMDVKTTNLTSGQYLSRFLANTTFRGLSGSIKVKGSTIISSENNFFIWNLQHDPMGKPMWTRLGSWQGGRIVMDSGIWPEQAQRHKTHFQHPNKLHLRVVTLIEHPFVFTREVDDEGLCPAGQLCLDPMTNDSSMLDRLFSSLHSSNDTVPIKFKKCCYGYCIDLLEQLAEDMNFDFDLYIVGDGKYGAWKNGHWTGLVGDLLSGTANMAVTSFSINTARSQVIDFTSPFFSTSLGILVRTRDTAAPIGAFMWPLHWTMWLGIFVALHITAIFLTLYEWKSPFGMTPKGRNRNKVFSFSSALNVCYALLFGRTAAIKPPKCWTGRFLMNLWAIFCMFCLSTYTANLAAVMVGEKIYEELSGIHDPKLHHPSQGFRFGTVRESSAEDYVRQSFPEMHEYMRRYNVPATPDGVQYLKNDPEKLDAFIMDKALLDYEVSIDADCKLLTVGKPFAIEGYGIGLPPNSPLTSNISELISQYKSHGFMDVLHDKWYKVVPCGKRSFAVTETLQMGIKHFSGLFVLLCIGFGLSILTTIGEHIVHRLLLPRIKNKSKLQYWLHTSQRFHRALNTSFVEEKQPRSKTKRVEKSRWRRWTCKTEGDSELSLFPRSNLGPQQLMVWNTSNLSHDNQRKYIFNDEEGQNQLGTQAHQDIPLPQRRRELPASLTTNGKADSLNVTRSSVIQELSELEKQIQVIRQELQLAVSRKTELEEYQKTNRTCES

For the substance Tyr3-Con-G (peptide), the % Inh, spermine-enhanced [3H]MK-801 binding amounted to 0% and the % Sti, [3H]MK-801 binding without spermine was determined as 0%.

ConG(1-5)AAAA(14-17) (peptide) registered a % Sti, [3H]MK-801 binding without spermine of 0%.

With Con-G(12-15) (peptide), the % Inh, spermine-enhanced [3H]MK-801 binding was found to be 0%; the % Sti, [3H]MK-801 binding without spermine amounted to 20%; the EC (µM), stimulation of [3H]MK-801 binding without spermine came to 69.8 µM.

In the case of Con-G-OH (peptide), the % Inh, spermine-enhanced [3H]MK-801 binding turned out to be 0% and the % Sti, [3H]MK-801 binding without spermine amounted to 0%.

In the case of Glu 3,4,7,10,14-Con-G(2-17) (peptide), the % Inh, spermine-enhanced [3H]MK-801 binding is 70%; the % Sti, [3H]MK-801 binding without spermine is 33%; the EC (µM), stimulation of [3H]MK-801 binding without spermine was found to be 0.9 µM; the IC (µM), inhibition of spermine-enhanced [3H]MK-801 binding came to 5.4 µM.

Turning to Con-G(15-17) (peptide), the % Inh, spermine-enhanced [3H]MK-801 binding stood at 0%; the % Sti, [3H]MK-801 binding without spermine came out at 20%; the EC (µM), stimulation of [3H]MK-801 binding without spermine came to 61.7 µM.

For the substance Ac-Tyr^o-Con-G (peptide), the % Inh, spermine-enhanced [3H]MK-801 binding was determined as 73%; the % Sti, [3H]MK-801 binding without spermine turned out to be 0%; the IC (µM), inhibition of spermine-enhanced [3H]MK-801 binding is 18.3 µM.

With tBu-Tyr^o-Con-G (peptide), the % Inh, spermine-enhanced [3H]MK-801 binding is 29%; the % Sti, [3H]MK-801 binding without spermine was 69%; the EC (µM), stimulation of [3H]MK-801 binding without spermine was determined as 1 µM; the IC (µM), inhibition of spermine-enhanced [3H]MK-801 binding was 1.5 µM.

As for Ala4-Con-G (peptide), the % Inh, spermine-enhanced [3H]MK-801 binding is 0% and the % Sti, [3H]MK-801 binding without spermine is 0%.

Regarding Tyr7-Con-G (peptide), the % Inh, spermine-enhanced [3H]MK-801 binding turned out to be 100%; the % Sti, [3H]MK-801 binding without spermine worked out at 0%; the IC (µM), inhibition of spermine-enhanced [3H]MK-801 binding was determined as 0.5 µM.

On to iodo-Tyr7-Con-G (peptide), for which the % Inh, spermine-enhanced [3H]MK-801 binding was 100%; the % Sti, [3H]MK-801 binding without spermine came to 0%; the IC (µM), inhibition of spermine-enhanced [3H]MK-801 binding came to 0.5 µM.

For Glu14-Con-G(12-17) (peptide), the % Inh, spermine-enhanced [3H]MK-801 binding came out at 0%; the % Sti, [3H]MK-801 binding without spermine was found to be 30%; the EC (µM), stimulation of [3H]MK-801 binding without spermine is 47 µM.

As for Tyr(oMe)^o-Con-G (peptide), the % Inh, spermine-enhanced [3H]MK-801 binding was 0% and the % Sti, [3H]MK-801 binding without spermine came out at 0%.

As to Tyr^o-Con-G (peptide), the % Inh, spermine-enhanced [3H]MK-801 binding amounted to 0% and the % Sti, [3H]MK-801 binding without spermine is 0%.

Consider Ala7,10,14-Con-G (peptide), for which the % Inh, spermine-enhanced [3H]MK-801 binding was 100%; the % Sti, [3H]MK-801 binding without spermine was 0%; the IC (µM), inhibition of spermine-enhanced [3H]MK-801 binding is 0.5 µM.

As to Ser(p)7-Con-G (peptide), the % Inh, spermine-enhanced [3H]MK-801 binding was 50%; the % Sti, [3H]MK-801 binding without spermine stood at 0%; the IC (µM), inhibition of spermine-enhanced [3H]MK-801 binding was 1.04 µM.

di-iodo-Tyr7-Con-G (peptide): the % Inh, spermine-enhanced [3H]MK-801 binding came out at 100%; the % Sti, [3H]MK-801 binding without spermine was 0%; the IC (µM), inhibition of spermine-enhanced [3H]MK-801 binding was found to be 0.5 µM.

In the case of Ser(p)4-Con-G (peptide), the % Inh, spermine-enhanced [3H]MK-801 binding was 0% and the % Sti, [3H]MK-801 binding without spermine was 0%.

ConG(1-6)A5(14-17) (peptide) had a % Sti, [3H]MK-801 binding without spermine of 0%.

For the substance D-Glu3,4,7,10,14-Con-G (peptide), the % Inh, spermine-enhanced [3H]MK-801 binding turned out to be 0%; the % Sti, [3H]MK-801 binding without spermine is 30%; the EC (µM), stimulation of [3H]MK-801 binding without spermine was determined as 5.8 µM.

Ala14-Con-G (peptide): the % Inh, spermine-enhanced [3H]MK-801 binding turned out to be 100%; the % Sti, [3H]MK-801 binding without spermine is 0%; the IC (µM), inhibition of spermine-enhanced [3H]MK-801 binding was 0.16 µM.

As for Con-G(14-17) (peptide), the % Inh, spermine-enhanced [3H]MK-801 binding is 0%; the % Sti, [3H]MK-801 binding without spermine stood at 61%; the EC (µM), stimulation of [3H]MK-801 binding without spermine came out at 1.3 µM.

With Ser3-Con-G (peptide), the % Inh, spermine-enhanced [3H]MK-801 binding was 23%; the % Sti, [3H]MK-801 binding without spermine amounted to 62%; the EC (µM), stimulation of [3H]MK-801 binding without spermine came to 8.4 µM; the IC (µM), inhibition of spermine-enhanced [3H]MK-801 binding was found to be 3.6 µM.

In the case of Ser10-Con-G (peptide), the % Inh, spermine-enhanced [3H]MK-801 binding was 100%; the % Sti, [3H]MK-801 binding without spermine turned out to be 0%; the IC (µM), inhibition of spermine-enhanced [3H]MK-801 binding worked out at 1.8 µM.

The substance ConG(1-5)AA(14-17) (peptide) registered a % Sti, [3H]MK-801 binding without spermine of 0%.

Turning to Ser4-Con-G (peptide), the % Inh, spermine-enhanced [3H]MK-801 binding stood at 0% and the % Sti, [3H]MK-801 binding without spermine turned out to be 0%.

Turning to Con-G(12-17) (peptide), the % Inh, spermine-enhanced [3H]MK-801 binding is 0%; the % Sti, [3H]MK-801 binding without spermine is 20%; the EC (µM), stimulation of [3H]MK-801 binding without spermine came out at 58 µM.

As to Ser^o-Con-G (peptide), the % Inh, spermine-enhanced [3H]MK-801 binding was 41%; the % Sti, [3H]MK-801 binding without spermine is 0%; the IC (µM), inhibition of spermine-enhanced [3H]MK-801 binding is 6.8 µM.

With Glu4-Con-G (peptide), the % Inh, spermine-enhanced [3H]MK-801 binding was 0% and the % Sti, [3H]MK-801 binding without spermine worked out at 0%.

With Phe^o-Con-G (peptide), the % Inh, spermine-enhanced [3H]MK-801 binding came to 51%; the % Sti, [3H]MK-801 binding without spermine came to 53%; the EC (µM), stimulation of [3H]MK-801 binding without spermine was 6.8 µM; the IC (µM), inhibition of spermine-enhanced [3H]MK-801 binding is 6.1 µM.

The substance ConG(1-5)GGGG(14-17) (peptide) displayed a % Sti, [3H]MK-801 binding without spermine of 0%.

For Ala3-Con-G (peptide), the % Inh, spermine-enhanced [3H]MK-801 binding is 34%; the % Sti, [3H]MK-801 binding without spermine was found to be 0%; the IC (µM), inhibition of spermine-enhanced [3H]MK-801 binding was found to be 1.8 µM.

As for Glu10,14-Con-G(9-17) (peptide), the % Inh, spermine-enhanced [3H]MK-801 binding turned out to be 0% and the % Sti, [3H]MK-801 binding without spermine stood at 0%.

Ser7-Con-G (peptide): the % Inh, spermine-enhanced [3H]MK-801 binding was found to be 100%; the % Sti, [3H]MK-801 binding without spermine stood at 0%; the IC (µM), inhibition of spermine-enhanced [3H]MK-801 binding came out at 0.25 µM.

Turning to Ser(p)3-Con-G (peptide), the % Inh, spermine-enhanced [3H]MK-801 binding is 34%; the % Sti, [3H]MK-801 binding without spermine worked out at 68%; the EC (µM), stimulation of [3H]MK-801 binding without spermine was 3.5 µM; the IC (µM), inhibition of spermine-enhanced [3H]MK-801 binding amounted to 0.9 µM.

For Ser(p)14-Con-G (peptide), the % Inh, spermine-enhanced [3H]MK-801 binding came to 31%; the % Sti, [3H]MK-801 binding without spermine is 0%; the IC (µM), inhibition of spermine-enhanced [3H]MK-801 binding was 1.12 µM.

Regarding ConG(1-6)A7(14-17) (peptide), the % Sti, [3H]MK-801 binding without spermine was 0%.

With Ser14-Con-G (peptide), the % Inh, spermine-enhanced [3H]MK-801 binding was 100%; the % Sti, [3H]MK-801 binding without spermine stood at 0%; the IC (µM), inhibition of spermine-enhanced [3H]MK-801 binding amounted to 0.16 µM.

Consider Ac-Con-G (peptide), for which the % Inh, spermine-enhanced [3H]MK-801 binding amounted to 0% and the % Sti, [3H]MK-801 binding without spermine turned out to be 0%.

Consider Asn(GlcNAc)^o-Con-G (peptide), for which the % Inh, spermine-enhanced [3H]MK-801 binding was 38%; the % Sti, [3H]MK-801 binding without spermine came to 0%; the IC (µM), inhibition of spermine-enhanced [3H]MK-801 binding stood at 8.8 µM.

Take ConG(1-5)(14-17) (peptide): the % Inh, spermine-enhanced [3H]MK-801 binding turned out to be 15%; the % Sti, [3H]MK-801 binding without spermine was determined as 0%; the IC (µM), inhibition of spermine-enhanced [3H]MK-801 binding came out at 100 µM.

For Tyr^o-Glu3,4,7,10,14-Con-G (peptide), the % Inh, spermine-enhanced [3H]MK-801 binding was 0%; the % Sti, [3H]MK-801 binding without spermine stood at 31%; the EC (µM), stimulation of [3H]MK-801 binding without spermine came out at 2.7 µM.

Consider Phe(pCl)^o-Con-G (peptide), for which the % Inh, spermine-enhanced [3H]MK-801 binding came to 0% and the % Sti, [3H]MK-801 binding without spermine amounted to 0%.

Substance ConG(1-5)GG(14-17) (peptide) returned a % Sti, [3H]MK-801 binding without spermine of 0%.

Regarding Tyr(p)^o-Con-G (peptide), the % Inh, spermine-enhanced [3H]MK-801 binding is 0% and the % Sti, [3H]MK-801 binding without spermine was found to be 0%.

Take Glu 7,10,14-Con-G(6-17) (peptide): the % Inh, spermine-enhanced [3H]MK-801 binding is 0% and the % Sti, [3H]MK-801 binding without spermine was 0%.

Take Glu7,10,14-Con-G (peptide): the % Inh, spermine-enhanced [3H]MK-801 binding came to 70%; the % Sti, [3H]MK-801 binding without spermine stood at 0%; the IC (µM), inhibition of spermine-enhanced [3H]MK-801 binding was over 5 µM.

On to Con-G(1-5) (peptide), for which the % Inh, spermine-enhanced [3H]MK-801 binding amounted to 50%; the % Sti, [3H]MK-801 binding without spermine turned out to be 0%; the IC (µM), inhibition of spermine-enhanced [3H]MK-801 binding is 7.43 µM.

With Ala10-Con-G (peptide), the % Inh, spermine-enhanced [3H]MK-801 binding is 100%; the % Sti, [3H]MK-801 binding without spermine was determined as 0%; the IC (µM), inhibition of spermine-enhanced [3H]MK-801 binding was 1.1 µM.

As to Glu3,4,7,10,14-Con-G (peptide), the % Inh, spermine-enhanced [3H]MK-801 binding is 22%; the % Sti, [3H]MK-801 binding without spermine is 79%; the EC (µM), stimulation of [3H]MK-801 binding without spermine is 6.7 µM; the IC (µM), inhibition of spermine-enhanced [3H]MK-801 binding was found to be 8.5 µM.

Take Asn^o-Con-G (peptide): the % Inh, spermine-enhanced [3H]MK-801 binding is 83%; the % Sti, [3H]MK-801 binding without spermine was determined as 0%; the IC (µM), inhibition of spermine-enhanced [3H]MK-801 binding was 8.7 µM.

Regarding Ser(p)10-Con-G (peptide), the % Inh, spermine-enhanced [3H]MK-801 binding was 100%; the % Sti, [3H]MK-801 binding without spermine is 0%; the IC (µM), inhibition of spermine-enhanced [3H]MK-801 binding came to 0.56 µM.
